Data on one molecule can be found in article PMC5522078, “Discovery and characterization of small molecules targeting the DNA-binding ETS domain of ERG in prostate cancer” (Oncotarget, 2017).

The series addresses T1, ERG-ETS domain (UniProt P11308 307-400).
T1 sequence: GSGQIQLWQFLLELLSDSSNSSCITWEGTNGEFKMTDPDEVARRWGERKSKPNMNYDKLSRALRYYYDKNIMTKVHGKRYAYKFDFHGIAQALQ
Nature of the series: EMSA; no compound; 1 nM DNA; EMSA: protein stored in 20 mM sodium phosphate, 200 mM NaCl, 2 mM DTT, 0.1 mM EDTA, pH 6.5; reaction with 3% glycerol, 0.2 mg/mL BSA, 1 nM dsDNA, room temperature 1 h; 10% native gel run at 10 C. Particulars: protein: recombinant; tags: His6 removed by thrombin; label: Alexa-488; blunt. A general note: Mobility shift assays separate free from complexed probe on a gel.

B1: ETS consensus GGAA probe (dsDNA)
DNA 1: CGGCCAAGCCGGAAGTGAGTG
DNA 2: CACTCACTTCCGGCTTGGCCG
Broadly, the Kd is the free concentration of one partner at which half of the binding sites on the other are occupied at equilibrium, for simple one-to-one binding. For B1, the dissociation constant Kd was around 1 nM.
